Assay results taken from patent publication US20220306986A1, “NON-INVASIVE METHODS FOR SELECTIVELY ENRICHING PLURIPOTENT CELLS” (MEMORIAL SLOAN-KETTERING CANCER CENTER, priority 2019, published 2022).

What was measured:
Format in all cases: cell-based, mouse
[1] = system: ESCs; assay: Colony formation assay (alkaline phosphatase staining) after pulse treatment; details: during transient glutamine withdrawal and in the presence of exogenous glutamine; FIG. 7H, 7I
Method: For transient glutamine withdrawal (“pulse”) experiments, cells were initially plated in standard S/L medium as described above. The following day, cells were washed with PBS and then changed to experimental medium containing a 1:1 mix of glutamine-free DMEM and glutamine-free Neurobasal medium including 10% dialyzed FBS, 2-mercaptoethanol, LIF, and containing (“Ctrl”) or lacking (“Pulse”) L-glutamine as indicated. 24 hours later, cells were washed with PBS and then returned to glutamine-replete medium (“Recover”). 24 hours later, cells were subjected to either image analysis, flow cytometry, or plated for colony formation assays as indicated. For glutamine pulse experiments in human ESCs, cells were initially plated at a density of 300,000 cells/well in a tissue-culture treated polystyrene 12-well plate coated with vitronectin (Thermo Fisher Scientific, A14700) in E8 medium (Thermo Fisher Scientific, A1517001) containing 10 uM ROCK inhibitor Y-27632 (Selleck Chemicals S1049). 24 hrs after plating, medium was changed to modified E8 medium containing: DMEM high glucose without glutamine (Thermo Fisher 11960044), 10.7 mg/L Transferrin (Sigma T0665), 64 mg/L L-Ascorbic Acid (Sigma A890), 14 ug/L Sodium Selenite (Sigma S5261), 543 mg/L Sodium Bicarbonate (Research Products International 144558), 19.4 mg/L insulin (Sigma 19278), 100 ug/L bFGF (EMD Millipore GF003AF), 2 ug/L TGFβ1 (Peprotech 10021), and 2 mM L-glutamine. After 24 hrs of culture in modified E8 medium, medium was changed to modified E8 medium containing 2 mM or 0 mM L-glutamine for 24 hrs. All cells were then changed to modified E8 medium containing 2 mM L-glutamine and cultured for 24 hrs before harvest for analysis. […] For ESC colony formation assays, colonies were scored manually in a blinded fashion. For reprogramming experiments, alkaline-phosphatase colonies were scored automatically using ImageJ (NIH). Briefly, images of each well were binarized using the Default function and particles greater than 8 pixels with a circularity of 0.7-1.0 were counted.

[2] = system: ESCs expressing the G-CSF-activated LIF receptor transgene; assay: GC-MS isotope tracing of [U-13C]glucose or [U-13C]glutamine
Method: Steady state TCA cycle metabolite measurements. Cells were seeded in standard S/L medium in 6-well plates. 24 hours later, cells were washed with PBS and changed into experimental medium containing a 1:1 mix of glutamine-free DMEM and glutamine-free Neurobasal medium including 10% dialyzed FBS, 2-mercaptoethanol, LIF, and 2 mM L-glutamine. The next day, cells were washed with PBS and subjected to the same experimental medium either with or without 2 mM glutamine. 8 hours later, metabolites were extracted with 1 mL ice-cold 80% methanol containing 2 μM deuterated 2-hydroxyglutarate (D-2-hydroxyglutaric-2,3,3,4,4-d5 acid, d5-2HG) as an internal standard. After overnight incubation at −80° C., lysates were harvested and centrifuged at 21,000 g for 20 minutes to remove protein. Extracts were dried in an evaporator (Genevac EZ-2 Elite) and resuspended by incubating at 30° C. for 2 hours in 50 μL of 40 mg/mL methoxyamine hydrochloride in pyridine. Metabolites were further derivatized by addition of 80 μL of MSTFA+1% TCMS (Thermo Scientific) and 70 μl ethyl acetate (Sigma) and then incubated at 37° C. for 30 minutes. Samples were analyzed using an Agilent 7890A GC coupled to Agilent 5977C mass selective detector. The GC was operated in splitless mode with constant helium gas flow at 1 mL/min. 1 μl of derivatized metabolites was injected onto an HP-5MS column and the GC oven temperature ramped from 60° C. to 290° C. over 25 minutes. Peaks representing compounds of interest were extracted and integrated using MassHunter software (Agilent Technologies) and then normalized to both the internal standard (d5-2HG) peak area and protein content of duplicate samples as determined by BCA protein assay (Thermo Scientific). Ions used for quantification of metabolite levels are as follows: d5-2HG m/z 354; αKG, m/z 304; aspartate, m/z 334; citrate, m/z 465; fumarate, m/z 245; glutamate, m/z 363; malate, m/z 335 and succinate, m/z 247. All peaks were manually inspected and verified relative to known spectra for each metabolite.
Isotope tracing studies. For isotope tracing studies, cells were seeded in standard S/L medium in 6-well plates. 24 hours later, cells were washed with PBS and changed into experimental medium containing a 1:1 mix of glutamine-free DMEM and glutamine-free Neurobasal medium including 10% dialyzed FBS, 2-mercaptoethanol, LIF, and 2 mM L-glutamine. […] Enrichment of ^13C was assessed by quantifying the abundance of the following ions: aKG, m/z 304-318; aspartate, m/z 334-346; citrate, m/z 465-482; fumarate, m/z 245-254; glutamate, m/z 363-377 and malate, m/z 335-347. […]

[3] = system: JAK/STAT3 signaling; assay: Immunoblot of phospho-STAT3 and total STAT3; details: ESCs expressing chimeric GCSF-responsive LIF receptor; FIG. 5A
Method: Protein lysates were extracted in 1× radioimmunoprecipitation assay buffer (Cell Signaling Technology), separated by SDS—polyacrylamide gel electrophoresis and transferred to nitrocellulose membranes (Bio-Rad). Membranes were blocked in 3% milk in Tris-buffered saline with 0.1% Tween20 (TBST) and incubated at 4° C. with primary antibodies overnight. After TBST washes the next day, membranes were incubated with horseradish peroxidase-conjugated secondary antibodies for 2 h, incubated with enhanced chemiluminescence (Thermo Fisher Scientific) and imaged with an SRX-101A X-ray Film Processor (Konica Minolta). The antibodies used (at 1:1,000 unless otherwise stated) were: Nanog (catalogue no. AF2729; R&D Systems); KLF4 (catalogue no. ab129473; Abcam), phospho-Stat3 (catalogue no. 9138; Cell Signaling Technology); Stat3 (124146, catalogue no. 9139; Cell Signaling Technology), and α-Tubulin (1:10,000, catalogue no. 79026; Sigma-Aldrich).

[4] = system: Stat3 target gene Tfcp2l1 and key transcription factors associated with naïve pluripotency; assay: qRT-PCR of STAT3-target genes and other key pluripotency genes; details: ESCs expressing GCSF-activated LIF receptor; FIG. 5B
Method: RNA was isolated from six-well plates using Trizol (Invitrogen) according to manufacturer instructions. 200 ng RNA was used for cDNA synthesis using iScript (BioRad). Quantitative real-time PCR analysis was performed in technical triplicate using QuantStudio 7 Flex (Applied Biosystems) with Power SYBR Green (Life Technologies). All data were generated using cDNA from triplicate wells for each condition. Actin was used as an endogenous control for all experiments. The following primers were used: […]

Row | ESC self-renewal (Nanog-GFP, colony formation) [1] | fraction of TCA cycle metabolites derived from oxidative decarboxylation of glucose-derived pyruvate (m+2 isotopologues) ([2]; [U-13C]glucose, FIG. 1B) | fraction of metabolites derived from glutamine catabolism ([2]; [U-13C]glutamine, FIG. 1D) | fraction of glutamate derived from glutamine ([2]; [U-13C]glutamine, control ESCs more than 80%, FIG. 1D) | Molecule | intracellular pools of glutamate when deprived of exogenous glutamine ([2]; [U-13C]glucose, 4 h glutamine withdrawal, FIG. 5C) | JAK/STAT3 signaling (phospho-STAT3) [3] | expression of Tfcp2l1 and naïve pluripotency transcription factors [4]
1 | impaired ESC self-renewal | – | – | – | CCOC(=O)CCNc1cc(N2CCc3ccccc3CC2)nc(-c2ccccn2)n1 [GSK-J4] | – | – | –
2 | – | increased | decreased | 60% | GCSF: granulocyte colony-stimulating factor, activates the chimeric LIF receptor transgene (protein, UniProt P09919 31-207, looked up) Granulocyte …: TPLGPASSLPQSFLLKCLEQVRKIQGDGAALQEKLVSECATYKLCHPEELVLLGHSLGIPWAPLSSCPSQALQLAGCLSQLHSGLFLYQGLLQALEGISPELGPTLDTLQLDVADFATTIWQQMEELGMAPALQPTQGAMPAFASAFQRRAGGVLVASHLQSFLEVSYRVLRHLAQP | able to use glucose and other anaplerotic substrates to maintain intracellular pools of glutamate | elevated and sustained JAK/STAT3 signaling | enhancing expression
